Assay results reported in patent US8309097 (VERENIGING VOOR CHRISTELIJK WETENSCHAPPELIJK ONDERWIJS, dated 2012).
Read-outs that look alike come from different tables or passages of the source.

What was measured:
[1] = target: T1, ICAM-3 from granulocytes (UniProt P32942 30-547); assay: ELISA: ICAM-3 captured from granulocyte lysate by coated antibody, DC-SIGN-Fc added (FIG. 22C)
T1 construct: also called ICAM-3 captured or immunoprecipitated from granulocyte lysate
T1 sequence (looked up): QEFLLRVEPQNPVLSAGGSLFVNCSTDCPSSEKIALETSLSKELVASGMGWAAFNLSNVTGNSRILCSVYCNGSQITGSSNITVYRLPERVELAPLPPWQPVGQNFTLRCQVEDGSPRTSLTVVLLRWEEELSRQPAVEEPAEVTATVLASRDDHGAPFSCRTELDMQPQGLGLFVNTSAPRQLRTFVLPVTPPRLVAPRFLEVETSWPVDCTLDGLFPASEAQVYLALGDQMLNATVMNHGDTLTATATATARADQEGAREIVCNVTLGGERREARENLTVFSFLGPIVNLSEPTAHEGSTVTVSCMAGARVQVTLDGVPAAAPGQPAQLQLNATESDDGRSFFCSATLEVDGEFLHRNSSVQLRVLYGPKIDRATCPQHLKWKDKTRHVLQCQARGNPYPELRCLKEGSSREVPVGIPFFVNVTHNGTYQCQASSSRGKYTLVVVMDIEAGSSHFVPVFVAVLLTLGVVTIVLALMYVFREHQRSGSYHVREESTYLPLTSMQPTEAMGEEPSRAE

[2] = target: T2, ICAM-3 coated on fluorescent beads (UniProt P32942 30-485)
T2 sequence: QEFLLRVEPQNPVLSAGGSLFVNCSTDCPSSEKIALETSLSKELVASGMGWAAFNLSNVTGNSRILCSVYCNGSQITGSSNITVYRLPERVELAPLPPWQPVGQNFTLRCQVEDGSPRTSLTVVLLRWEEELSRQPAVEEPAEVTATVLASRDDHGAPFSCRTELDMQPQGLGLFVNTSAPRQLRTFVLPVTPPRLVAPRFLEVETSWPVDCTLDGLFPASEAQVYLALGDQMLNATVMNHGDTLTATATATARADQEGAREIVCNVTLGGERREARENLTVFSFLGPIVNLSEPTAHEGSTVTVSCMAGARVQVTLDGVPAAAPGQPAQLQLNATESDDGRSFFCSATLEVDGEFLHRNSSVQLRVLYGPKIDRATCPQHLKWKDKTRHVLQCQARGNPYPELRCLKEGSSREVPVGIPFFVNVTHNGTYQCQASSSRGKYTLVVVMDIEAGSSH

[3] = target: T3, ICAM-3-Fc (UniProt P32942 30-485); assay: beads coated with ICAM-3-Fc, immature DC and K562-DC-SIGN
T3 construct: also called pIG-ICAM-3-Fc product; Fc chimera of ICAM-3
T3 sequence (looked up): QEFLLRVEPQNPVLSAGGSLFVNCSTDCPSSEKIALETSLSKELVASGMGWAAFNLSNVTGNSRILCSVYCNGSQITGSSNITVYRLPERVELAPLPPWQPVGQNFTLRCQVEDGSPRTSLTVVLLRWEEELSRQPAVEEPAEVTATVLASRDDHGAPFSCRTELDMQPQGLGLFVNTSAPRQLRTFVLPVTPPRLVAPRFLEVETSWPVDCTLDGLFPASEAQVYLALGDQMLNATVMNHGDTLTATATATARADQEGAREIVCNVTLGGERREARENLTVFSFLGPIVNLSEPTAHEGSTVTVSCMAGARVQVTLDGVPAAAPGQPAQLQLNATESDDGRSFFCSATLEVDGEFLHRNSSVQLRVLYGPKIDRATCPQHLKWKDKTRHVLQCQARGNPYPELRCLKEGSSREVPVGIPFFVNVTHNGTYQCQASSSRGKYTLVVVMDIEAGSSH

[4] = target: T2, ICAM-3 coated on fluorescent beads; assay: fluorescent bead adhesion assay, K562 transfectants

B1: DC-SIGN-Fc (Fc fusion, human, UniProt Q9NNX6 64-404, looked up, not shown: a dimerising Fc or GST)
chain: PSSISQEQSRQDAIYQNLTQLKAAVGELSEKSKLQEIYQELTQLKAAVGELPEKSKLQEIYQELTRLKAAVGELPEKSKLQEIYQELTWLKAAVGELPEKSKMQEIYQELTRLKAAVGELPEKSKQQEIYQELTRLKAAVGELPEKSKQQEIYQELTRLKAAVGELPEKSKQQEIYQELTQLKAAVERLCHPCPWEWTFFQGNCYFMSNSQRNWHDSITACKEVGAQLVVIKSAEEQNFLQLQSSRSNRFTWMGLSDLNQEGTWQWVDGSPLLPSFKQYWNRGEPNNVGEEDCAEFSGNGWNDDKCNLAKFWICKKSAASCSRDEEQFLSPAPATPNPPPA
notes: range 64-404; also called soluble DC-SIGN-Fc; DC-SIGN-Fe
**Q.** Does B1 bind [1]?
**A.** no binding

B2: DC-SIGN (CD209), wild type, expressed on K562 transfectants or immature dendritic cells (receptor, human, UniProt Q9NNX6 1-404, looked up)
chain: MSDSKEPRLQQLGLLEEEQLRGLGFRQTRGYKSLAGCLGHGPLVLQLLSFTLLAGLLVQVSKVPSSISQEQSRQDAIYQNLTQLKAAVGELSEKSKLQEIYQELTQLKAAVGELPEKSKLQEIYQELTRLKAAVGELPEKSKLQEIYQELTWLKAAVGELPEKSKMQEIYQELTRLKAAVGELPEKSKQQEIYQELTRLKAAVGELPEKSKQQEIYQELTRLKAAVGELPEKSKQQEIYQELTQLKAAVERLCHPCPWEWTFFQGNCYFMSNSQRNWHDSITACKEVGAQLVVIKSAEEQNFLQLQSSRSNRFTWMGLSDLNQEGTWQWVDGSPLLPSFKQYWNRGEPNNVGEEDCAEFSGNGWNDDKCNLAKFWICKKSAASCSRDEEQFLSPAPATPNPPPA
notes: whole, on cells; also called cellular DC-SIGN; K562-DC-SIGN
**Q.** Which results are given for B2?
**A.** binding result [2]: binds; binding result [3]: binds

B3: DC-SIGN E347Q mutant expressed by K562 cells (receptor)
chain: MSDSKEPRLQQLGLLEEEQLRGLGFRQTRGYKSLAGCLGHGPLVLQLLSFTLLAGLLVQVSKVPSSISQEQSRQDAIYQNLTQLKAAVGELSEKSKLQEIYQELTQLKAAVGELPEKSKLQEIYQELTRLKAAVGELPEKSKLQEIYQELTWLKAAVGELPEKSKMQEIYQELTRLKAAVGELPEKSKQQEIYQELTRLKAAVGELPEKSKQQEIYQELTRLKAAVGELPEKSKQQEIYQELTQLKAAVERLCHPCPWEWTFFQGNCYFMSNSQRNWHDSITACKEVGAQLVVIKSAEEQNFLQLQSSRSNRFTWMGLSDLNQEGTWQWVDGSPLLPSFKQYWNRGQPNNVGEEDCAEFSGNGWNDDKCNLAKFWICKKSAASCSRDEEQFLSPAPATPNPPPA
notes: whole, on cells
**Q.** Does B3 bind [4]?
**A.** no binding
